B1: SEQ_ID_#72 (nucleic acid, listed as Homo sapiens)
DNA: AGCTATTCATTCATTTAATGAATATTTTTAATATCGATGTACATGCCAGATAATGAAGAGGAGGGGTGTTACAGAAGTATACAACAAATTGTATCATTCAGCAATCCTTTATCCTAGTGGGGAAGATGACTATACAGATAATTACAACTTAAGGCCATTTTTTGGATAAGAAACATAAAAGTGGTACAAACAAAAGTTCAAGGAGGCAAAGACCACTTCTTATTCTGGTTATATGGATAGCCTTCATGGAGAAGGCTTCATGACAGTTGGGTTGGGTCTTGAAGATGTCTACAGGTAGAGCCTCAGAAAAAGGAATATGAAACATAGGGAACAGTAGGAGGAGGGCAGCTTTAGTGACTGGCTCGGTTATACTAGAGCATTGGGATTGTAGAGGAGAATCATGATTGATTAAGGCTATATAGGGCAGTTAGGGCCAGATACTGGGGGAATTTGAATATCAGACTGTTATTTGATGAACAGTGGGAGCAGCTGAAGGTTTTTTTTTTTTTTTTAAAAAAAACAACCTTATTAAGGTAGTG
B2: SEQ_ID_#901 (nucleic acid, listed as Homo sapiens)
DNA: CTCCTCGCCCTCCCCACCGACATCATGCTCCAGTTCCTGCTTGGATTTACACTGGGCAACGTGGTTGGAATGTATCTGGCTCAGAACTATGAT
modifications: chemistry not fully specified; the letters are possibly those of the target site
B3: SEQ_ID_#808 (nucleic acid, listed as Homo sapiens)
DNA: TTTCACTATAGAAAACCTTTAATAACAACTTCAGATTTACATGACCCTTCTGGTGCTCAGAACACTATGGATTAACACACACACTGGAAAGATACAGACACAGGAATCTGCTGCATTACCCCAAATGGCAAAGTCTTGACTGGGGCTTCAGCTCCTTTCCCAATCCAAAATTGGCACCTTTTTCCATGGAAATTCAAACTGCATCTCTAAATGATGGGGTACATGAACTGTCTGTTTCAAAAGTATTTAAAAACAAACAGGAAGTACAGCTTCCATTTCATTAAGAAAACACCACCACAAGACATGGTGCAGTATCTACTAGCTTAAAGTTTATCACTCCATTAGGGCTTATTGACAGCAGAAATGTGAATGTAGTAATGTAGAAATAAGGAAGAGAGCACTTAAGAAAAAAACAGTACAGAAGTTTTAGAGTTTTTTAAACTTTAATAATATGCTTGACTAATATAGTCAAAAGTGATATGCACTCGTGAAATTAACCCATTTTCTGAAGTCCAAATTAGCTATTAAAGTCTTTTTTTACCAAAAACATATAAGGATTTAGTACACTATATAGATTACATAGCTTTCCT
B4: SEQ_ID_#915 (nucleic acid, listed as Homo sapiens)
DNA: CAATAGGAGAAGCCAAGAAACGCAGATGCCGATGCTTAATCAACTCCGTCTCTCCCTCTAGTGACTCGGGGATAGCTGCCCTGATGCCAAGGCGATTGTCTTCTGGAAGCAGCCACGCCGTGTGAGGTTCCTCATCACTGCCCTGCATCTCCCTGCGAGCTCTCGGGGATAATTGCAAAATCACGTTTGATTCCAGGGAGCAGAAAGCAGCAGGAGCCGTGAATTCTCCAACTCTTAACTGGTCCTCGACTGAGCCACTTTTCCCTGCCCACCCATCCCTGTGGCGGATTCATTACAGTTATCCAAAGCCGGTTTTAACTTTGCTCCCCCTGGCTCAGAAGTCTGTCAGTGGGTCCTGAGCGGTTCACCATTCAAGTTTATTCCTATCAGCCTGGAATACAATGCTCTATCTG
B5: S100P (nucleic acid, listed as Homo sapiens)
DNA: TGAGGCTGCCTTATAAAGCACCAAGAGGCTGCCAGTGGGACATTTTCTCGGCCCTGCCAGCCCCCAGGAGGAAGGTGGGTCTGAATCTAGCACCATGACGGAACTAGAGACAGCCATGGGCATGATCATAGACGTCTTTTCCCGATATTCGGGCAGCGAGGGCAGCACGCAGACCCTGACCAAGGGGGAGCTCAAGGTGCTGATGGAGAAGGAGCTACCAGGCTTCCTGCAGAGTGGAAAAGACAAGGATGCCGTGGATAAATTGCTCAAGGACCTGGACGCCAATGGAGATGCCCAGGTGGACTTCAGTGAGTTCATCGTGTTCGTGGCTGCAATCACGTCTGCCTGTCACAAGTACTTTGAGAAGGCAGGACTCAAATGATGCCCTGGAGATGTCACAGATTCCTGGCAGAGCCATGGTCCCAGGCTTCCCAAAAGTGTTTGTTGGCAATTATTCCCCTAGGCTGAGCCTGCTCATGTACCTCTGATTAATAAATGCTTATGAAATGA
B6: SEQ_ID_#906 (nucleic acid, listed as Homo sapiens)
DNA: TGCTTTTGTTGTTGTTTTTAATTTAAAAAGACAAAATTGTTCGCCTTGTATAGAAGTAGATACAGCTTAGAGAGCCAAGGTAACAAGAGGGGAAAAGTTTGTGTTGTCTGGTACTTTTGAGGGAGTCAGAAGCCTAAAGGGAGGCTCTAACTCATGATTCTCAGAAGACAACTGTTGTCAACAGTTCAAATGAGAACTGAACGGCCACACTCCTGCAGCTGAAAGGAGTCAATGCGAGCTGAGTTGCTCTCACCGAACAGAGTGCGTTCCCCGGGGAGGCAGGGAAAGGCCGGCTTGCACCTGCTCTGTCACCCAGCTCCACTCTTAGGACAGAAGAGGTCTGGAAAATGTCTGGG
B7: SEQ_ID_#909 (nucleic acid, listed as Homo sapiens)
DNA: TGCTTTTGTTGTTGTTTTTAATTTAAAAAGACAAAATTGTTCGCCTTGTATAGAAGTAGATACAGCTTAGAGAGCCAAGGTAACAAGAGGGGAAAAGTTTGTGTTGTCTGGTACTTTTGAGGGAGTCAGAAGCCTAAAGGGAGGCTCTAACTCATGATTCTCAGAAGACAACTGTTGTCAACAGTTCAAATGAGAACTGAACGGCCACACTCCTGCAGCTGAAAGGAGTCAATGCGAGCTGAGTTGCTCTCACCGAACAGAGTGCGTTCCCCGGGGAGGCAGGGAAAGGCCGGCTTGCACCTGCTCTGTCACCCAGCTCCACTCTTAGGACAGAAGAGGTCTGGAAAATGTCTGGG
B8: SEQ_ID_#840 (nucleic acid, listed as Homo sapiens)
DNA: TACCACACATCTTCTTTATTAATGCATTGACAATCAGTGAAGACAATGAAAACCCACCACTTTTGTCCGTGAACTGAGAAAGAAAATGGCAATGTCATATGGCATTAATGATGCATGAGATCTATGGGTGTAGTGTCACGTCTAGGCGTGTAGTAATCCAGTCTTCGGCCTTACTCCAGGGAGAAAGATTCAGCTTTGTTACTTTCCAGTCACTCTCTCCCGTAACACAGCACCAAGACCGTTTAAAGCACTTAATTAATTCACTTCAGCTTCGCTGGAGAGGTCTCAGGGTTCCCGAGACTCCATTACATAATATCTTTCACAAAGTCTATTCCCAGCTCGAATGGAAGATGGATTCTCATCCAGTGTGCGG
B9: SEQ_ID_#807 (nucleic acid, listed as Homo sapiens)
DNA: TTAGCATTTTTAAATTTTATTATGACTTCATTTGTTTAAATATATATATATATATATATATATATATTTATTTATAGCTCTATGTGCCCACCGCCCCCGGCCCCCTCCCCGGCCCCTAGTTTTTCCCCCTGGCTTTCTGTCTAGTGGCTGTGTAGGGCAGAACCGTCTGCGTGCTCTTGTCTGACACTGTCTGGGTGCTGCTGTTCCTCGTGACCCTTCGAGTCTGTTCAGGGGCCAAGGTAGAGCCTGAGTGGCGGCTGGTCAGTGGAGAGCGCCGTGACTTGTAGGGGGCTGGGGAGGGCTTGTGGGGGCCTGCATGGGCCTCTGTATGGGCAGGCTCAGGGGGCAAGCCCACTTCTTCCTCCTCCACCTCCTGCTCACCGTCCCCCTCCTCATCGTC

These molecules were tested on EE transcriptome (assay: Genome-wide microarray transcript profiling of esophageal biopsies, EE patients vs normal individuals (EE transcriptome)). Settings: transcript level in esophageal biopsies of EE patients (n=76) compared to normal individuals (n=13); Affymetrix Human Genome U133 plus 2; p<0.01.
Method: Esophageal tissue obtained from patients previously diagnosed with EE was analyzed. Diagnosis was based on analysis of excised tissue from endoscopic biopsy. Tissues from patients with EE, as well as patients not having EE (controls) were subjected to genome-wide microarray transcript profiling (Affymetrix GeneChip). All work was performed at the Core facility at Children's Hospital Medical Center (Cincinnati Ohio).
Briefly, RNA quality was first assessed using the Agilent bioanaiyzer (Agilent Technologies, Palo Alto Calif.). Only mRNA having a ratio of 28S/18S between 1.3 and 2 were subsequently used. RNA was converted to cDNA with Superscript choice for cDNA synthesis (Invitrogen, Carlsbad Calif.) and subsequently converted to biotinylated cRNA with Enzo High Yield RNA Transcript labeling kit (Enzo Diagnostics, Farmingdale N.Y.). After hybridization to the GeneChip (Affymetrix, Santa Clara Calif.), the chips were automatically washed and stained with streptavidin-phycoerythrin using a fluidics system. The chips were scanned with a Hewlett Packard GeneArray Scanner. Over 30,000 unique genes were screened.
Levels of gene transcripts were determined from data image files, using algorithms in the Microarray Analysis Suite software (Affymetrix). Levels from chip to chip were compared by global scaling. Each gene was typically represented by a probe set of 16 to 20 probe pairs. Each probe pair consisted of a perfect match oligonucleotide and a mismatch oligonucleotide that contained a one base mismatch at a central position. Two measures of gene expression were used, absolute call and average difference. Absolute call is a qualitative measure in which each gene is assigned a call of present, marginal or absent, based on the hybridization of the RNA to the probe set. Average difference is a quantitative measure of the level of gene expression, calculated by taking the difference between […] of every probe pair and averaging the differences over the entire probe set. Data were normalized and an EE transcriptome gene list was created with results having p<0.01 (Welch t-test with or without false rate discovery) and ≥1.5-fold change.
For evaluation of EE using clinical and/or physical assessment, biopsy tissues (obtained from the distal esophagus during routine endoscopy) were submerged in formalin for routine pathological analysis with hematoxylin and eosin staining. Diagnosis was established based on the maximum eosinophil count per high power field (hpf) and basal layer expansion according to method known in the art (e.g., established criteria in Rothenberg et al., Pathogenesis and clinical features of eosinophilic esophagitis. J Allergy Clin Immunol 108 (2001) 891; Attwood et al., Esophageal eosinophilia with dysphagia. A distinct clinicopathologic syndrome. Dig Dis Sci 38 (1993)109; Fox et al., Eosinophilic esophagitis: its not just kid's stuff. Gastrointest Endosc 56 (2002) 26, each of which is expressly incorporated by reference herein in its entirety. Normal individuals (NL), n=13, served as a control and were defined as having 0 eosinophils/hpf and no basal layer expansion. Individuals with EE (n=76) were defined as having >24 eosinophils/hpf and extensive basal layer hyperplasia (expansion to about >⅓ of epithelium).
The data were analyzed by cluster analysis and ordered (standard correlation (A) and distance (B)) using Genespring software. […] Each column represented a separate individual and each line a gene. RNA from each patient was subjected to chip analysis using Affymetrix Human Genome U133 GeneChip plus 2.

For B1, the “Fold Change” value was 4.374.

Same assay, conditions: transcript level in esophageal biopsies of EE patients compared to normal individuals (NL); Affymetrix Human Genome U133 plus 2; p<0.01; >1 up-regulated, <1 down-regulated

Compared with B2, B3 is higher in “Fold Change” value: 0.643 for the first, 1.513 for the second.

Compared with B4, B5 is higher in “Fold Change” value: 0.638 for the first, 1.52 for the second.

First: B6
Second: B7
The “Fold Change” value of the first is higher: 0.64 for the first, 0.639 for the second.

Going from B8 to B9, the “Fold Change” value rises from 0.665 to 1.514.

Reference: patent publication US10155985B2, “Evaluation of eosinophilic esophagitis” (CHILDREN'S HOSPITAL MEDICAL CENTER, priority 2004, dated 2018)
